Test results taken from FireProtDB (doi:10.1002/pro.5560030904).
Several values for one entry are separate records, joined by “and”; a condition that tells them apart may be missing. Equal entries are not always repeated.

Conditions: Oryctolagus cuniculus; pH 7.4; Thermal; DSC; sodium phosphate 10 mM; transition: 4; reversible: yes; whole UniProt chain shown

B1: Fructose-bisphosphate aldolase A wild type, P00883 (protein)
chain: MPHSHPALTPEQKKELSDIAHRIVAPGKGILAADESTGSIAKRLQSIGTENTEENRRFYRQLLLTADDRVNPCIGGVILFHETLYQKADDGRPFPQVIKSKGGVVGIKVDKGVVPLAGTNGETTTQGLDGLSERCAQYKKDGADFAKWRCVLKIGEHTPSALAIMENANVLARYASICQQNGIVPIVEPEILPDGDHDLKRCQYVTEKVLAAVYKALSDHHIYLEGTLLKPNMVTPGHACTQKYSHEEIAMATVTALRRTVPPAVTGVTFLSGGQSEEEASINLNAINKCPLLKPWALTFSYGRALQASALKAWGGKKENLKAAQEEYVKRALANSLACQGKYTPSGQAGAAASESLFISNHAY
unfolding enthalpy (calorimetric): 61 kcal/mol and 34 kcal/mol
